“And” between values parts separate entries of the source, which are not always exact repeats. Equal entries are not always repeated. Ends that are not written are not given here. * marks the point of attachment. G0F = octasaccharide N-glycan with alpha-1,6 core fucose (Formula Ib, linkages Formula Ic), CC(=O)N[C@@H]1[C@@H](O)[C@H](O[C@@H]2O[C@H](CO)[C@@H](O[C@@H]3O[C@H](CO[C@H]4O[C@H](CO)[C@@H](O)[C@H](O)[C@@H]4O[C@@H]4O[C@H](CO)[C@@H](O)[C@H](O)[C@H]4NC(C)=O)[C@@H](O)[C@H](O[C@H]4O[C@H](CO)[C@@H](O)[C@H](O)[C@@H]4O[C@@H]4O[C@H](CO)[C@@H](O)[C@H](O)[C@H]4NC(C)=O)[C@@H]3O)[C@H](O)[C@H]2NC(C)=O)[C@@H](CO[C@@H]2O[C@@H](C)[C@@H](O)[C@@H](O)[C@@H]2O)O[C@H]1*
T1: PSA(67-79)-G0F (human, also: Asn3 N-glycosylated with octasaccharide carrying alpha-1,6 core fucose (G0F))
T1 construct: Synthetic glycopeptide (3.9 kDa as SPR analyte), made on Sieber Amide resin; For the ELISAs a biotinylated form was used (glutamic acid derivative with a PEG3-biotin side chain at the N-terminus); also called PSA(67-79)-GOF; glycopeptide of Formula Ib
T1 peptide: IRN(G0F)KSVILLGRHS-NH2

T2: Fucosylated PSA disaccharide glycopeptide (DP) (human, not fully specified (residue 3, C-terminus))
T2 construct: also called glycopeptide of Formula IV
T2 peptide: IRNKSVILLGRHS

B1: 2E9 (antibody, V domains shown)
VH: QSLEESGGDLVKPGASLTLTCTASGFSFSAGYDMCWVRQAPGKGLEWIACIYADGSGSTYYANWAKGRFTISLASSTTVTLQMTGLTAADTATYFCAREGADGPDYGYAAFSLWGPGTLVTVSS
VL: DVVMTQTPASVEAAVGGTVTIKCQASQSISNYFSWYQQKPGQPPKLLIYKASTLASGVPSRFKGSGSGTEFTLTISDLECADAATYYCQSFYGSVTSDYGGFAFGGGTEVVVK
notes: Rabbit monoclonal IgG (150 kDa); also called anti-1,6fucPSA antibody 2E9
B2: 2H9 (antibody, V domains shown)
VH: QSLEESGGDLVKPGASLTLTCTASGFSFSSGYDMCWVRQAPGKGPEWIACIYADGSGSTYYASWAKGRFTISMTSSTTVTLQMTRLTAADTATYFCAREGADDPNYGYAALRLWGPGTLVTVSS
VL: DIVMTQTPASVEAAVGGTVTIKCQASQSISNYLAWYQQKPGQPPKLLIYKTSTLASGVPSRFKGSGSGTEFTLTISDLECADAATYYCQSFYGSVSSDYGGFAFGGGTEVVVK
notes: Rabbit monoclonal IgG (150 kDa); also called anti-1,6fucPSA antibody 2H9
B3: 13C5 (antibody, V domains shown)
VH: QSLEESGGDLVKPGASLTLTCTASGFSFSSGYDMCWVRQAPGKGLEWIGCIYADGSGTTYYATWAKGRFTISNPSATTVTLQMTRLTAADTATYFCAREGADNPNYGYAALRLWGPGTLVTVSS
VL: DIVMTQTPASVSGAVGGTITIKCQASQSISNYFSWYQQKPGQPPKLLIYKTSTLASGVPSRFKGSGSGTEFTLTISDLECADAATYYCQSFWGSGSSDYGGFAFGGGTEVVVK
notes: Rabbit monoclonal IgG (150 kDa); also called anti-1,6fucPSA antibody 13C5
B4: 2C11 (antibody, V domains shown)
VH: QSLEESGGGLVKPGGTLTLTCKASGFSFGPGYDMCWVRQAPGKGLEWIACIYADGSDNTYYASWARGRFTISKTSSTTVTLQMTRLTAADTATYFCAREGADNPNYGYAALRLWGPGTLVTVSS
VL: DIVMTQTPASVEAPVGGTVTIKCQASESISSYLAWYQQKPGQPPKLLIYKTSTLASGVPSRFKGSGSGTEFTLTISDLECANAATYYCQSFYGSVSSDYGGFAFGGGTEVVVK
notes: Rabbit monoclonal IgG (150 kDa); also called anti-1,6fucPSA antibody 2C11
B5: 3B10 (antibody, V domains shown)
VH: QSLEESGGGLVKPGGTLTLTCKASGFSFSSGYDMCWVRQAPGKGLEWIACIYADGSDNTYYASWAKGRFTISKTSSTTVTLQMTRLTAADTATYFCAREGADNPNYGYAALRLWGPGTLVTVSS
VL: DIVMTQTPASVEAPVGGTVTIKCQATQSISSYLSWYQQKPGQPPKLLIYKTSTLASGVPSRFKGSGSGTEFTLTISDLECANAATYYCQSYYGSISSDYGGFAFGGGTEVVVK
notes: Rabbit monoclonal IgG (150 kDa); also called anti-1,6fucPSA antibody 3B10
B6: 3H6 (antibody, V domains shown)
VH: QSLEESGGDLVKPGASLTLTCTASGFSFSSGYDMCWVRQAPGKGLEWIACIYADGSGSTYYASWAKGRFTISKPSSTTVTLQMTRLTAADTATYFCAREGADGPDYGYAAFSLWGPGTLVTVSS
VL: DIVMTQTPASVEAAVGGTVTIKCQASQTISSYFSWYQQKPGQPPKLLIYKASSLASGVPSRFKGSGSGTQFTLTISDLECADAATYYCQSFYGSVSSDVGGFAFGGGTEVVVK
notes: Rabbit monoclonal IgG (150 kDa); also called anti-1,6fucPSA antibody 3H6

Key:
[1] = target: PSA in formalin-fixed, paraffin-embedded (FFPE) prostate tissue (human) (UniProt P07288); test: IHC on FFPE tumor tissue array (Tour of Tumor), prostate core
PSA in formalin-fixed, paraffin-embedded (FFPE) prostate tissue (human), sequence (P07288 25-261 limits assumed): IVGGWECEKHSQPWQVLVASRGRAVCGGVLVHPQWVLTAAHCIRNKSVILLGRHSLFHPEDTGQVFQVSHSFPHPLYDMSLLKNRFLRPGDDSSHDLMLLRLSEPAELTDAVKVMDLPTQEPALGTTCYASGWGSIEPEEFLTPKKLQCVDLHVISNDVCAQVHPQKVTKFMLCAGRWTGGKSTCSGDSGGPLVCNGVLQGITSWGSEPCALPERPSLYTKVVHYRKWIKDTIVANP

PSA(67-79)-G0F [2] = target: T1, PSA(67-79)-G0F; test: SPR, Biacore 8k, 37 C, antibody captured by anti-rabbit Fc, peptide as analyte
Experimental: (§1) 30 μg/ml of a Fcγ-fragment binding, polyclonal goat anti-Rabbit IgG (GARb-Fcγ, Jackson Laboratories) in 10 mM sodium acetate buffer (pH 4.5) was pre-concentrated in all 16 flow cells, and up to 10000 RU GARb-Fcγ were immobilized according to the manufacturer's instructions using EDC/NHS chemistry. Rabbit IgG antibody (150 kDa) containing rabbit B-cell primary cell culture supernatants were diluted three-fold with sample buffer and were captured for 2 min under a flow rate of 5 μl/min on 8 sample flow cells. The antibody Capture Level (CL) was quantified in response units (RU) for each antibody.
(§2) The non fucosylated peptide analyte PSA(67-79)-G2 (3.7 kDa) and the fucosylated peptide analyte PSA(67-79)-GOF (3.9 kDa) were diluted in sample buffer in concentration series of 0 nM (buffer), 11 nM, 33 nM, 100 nM, 300 nM, and 900 nM. The 100 nM analyte samples were injected twice as control. The analytes were injected at 30 μl/min for 3 min association time. After the association phase of the 900 nM analyte injection a report point (Binding Late) was set to quantify the signal response at antibody ligand saturation. The antibody antigen dissociation was monitored for 5 min. The GARb-Fcγ antibody capture system was regenerated by injection of 10 mM glycine pH 2 at 30 μl/min for 1 min, followed by two consecutive 1 min injections of 10 mM glycine pH 2.25 at 30 μl/min. Overlay plots of concentration dependent antigen binding were generated and kinetic rates were determined with the Biacore 8k evaluation software using a Langmuir fitting model with RMAX local. The antibody/antigen complex half-life was calculated in minutes according to the formula t_{1/2 diss}=ln(2)/60*kd.
Molar Ratio (MR) indicating antibody-antigen binding stoichiometry was also determined and calculated as MR=(analyte Binding Late (RU)/antibody Capture Level (RU)) x (MW(antibody)/MW (analyte)).

[3] = target: T2, Fucosylated PSA disaccharide …; test: IHC peptide inhibition, antibody pre-incubated with peptide
Experimental: FIG. 8. Inhibition of anti-1,6fucPSA antibody binding by fucosylated PSA disaccharide glycopeptide (DP) in IHC analysis of FFPE samples of prostate adenocarcinoma samples. From top to bottom rows, exemplary anti-1,6fucPSA antibodies, FIG. 8A: 2E9, 3B10, and 3H6 at 2.5 μg/ml, 2.5 μg/ml, and 2.5 μg/ml, respectively; FIG. 8B: 13C5, 2H9, and 2C11 at 3 μg/ml, 2.5 μg/ml, and 1 μg/ml, respectively. For FIG. 8A and FIG. 8B, antibodies were pre-incubated with, from left to right columns, PBS buffer (control) or DP at 5×10⁻⁹ M, 5×10⁻⁸ M, 5×10⁻⁷ M, 5×10⁻⁶ M, or 5×10⁻⁵ M.
To verify that anti-1,6fucPSA antibodies recognize specifically and selectively the core-fucosylated PSA epitope, staining specificity was tested by peptide inhibition analysis.

PSA(67-79)-G0F [4] = target: T1, PSA(67-79)-G0F; test: SPR, Biacore 8k, 37 C, antibody captured by anti-rabbit Fc, peptide as analyte, Langmuir fit
Experimental: as §1, §2

PSA(67-79)-G0F [5] = target: T1, PSA(67-79)-G0F; test: Hit-ELISA, biotinylated peptide on streptavidin plate, supernatant of recombinant expression
Experimental: Subsequently Hit-ELISA (i.e. ELISAs testing the binding to the screening agents) was used to identify B-cells expressing antibodies having desired binding characteristics, i.e. binding the PSA(67-79)-GOF peptide and capable of discriminating from PSA(67-79)-G2 and Asn-GOF. Biotinylated screening agents PSA(67-79)-GOF, PSA(67-79)-G2 and Asn-GOF were immobilized on the surface of streptavidin-coated 96-well plates (Nunc) by incubation of 100 μl per well of 100 ng/ml solutions for 60 min at room temperature, respectively. The plates were washed and 30 μl of rabbit B-cell culture supernatant was transferred to each well and incubated for 1 h at room temperature. For the detection of antibodies bound to the screening agents, HRP-labeled F(ab′)₂ goat anti-rabbit Fcγ (Dianova) and ABTS substrate solution (Roche) were used according to manufacturer's instructions. 16 clones were identified that bound to PSA(67-79)-GOF and discriminated from the negative screening agents according to the selected cut-offs (OD>0.6 in positive screening and <0.6 in negative screening). The 16 clones were selected for subsequent molecular cloning and recombinant expression as also described in Seeber et al., PLoS One 9(2014), issue 2, e86184. For 15 out of the 16 clones the sequences could be successfully cloned and the sequences encoding VH and VL could be unambiguously determined. The Hit-ELISA using the screening agents was then repeated with the supernatant of the recombinant expression and the more stringent cut-off criteria (OD>1 for positive screening agent and OD at/below average background signal for negative screening agents) were fulfilled for all 15 previously selected clones for which unambiguous VH and VL sequences were retrieved.

PSA(67-79)-G0F [6] = target: T1, PSA(67-79)-G0F; test: SPR, Biacore 8k, 37 C, antibody captured by anti-rabbit Fc, 900 nM peptide injection
Experimental: as §1, §2

Molecule | IHC staining intensity [1] | MR (Molar Ratio) (PSA(67-79)-G0F [2]) | peptide concentration giving complete inhibition [3] [µM] | Kd (PSA(67-79)-G0F [4]) [nM] | koff (PSA(67-79)-G0F [4]) [s⁻¹] | kon (PSA(67-79)-G0F [4]) [M⁻¹ s⁻¹] | t/2diss (PSA(67-79)-G0F [4]) [min] | OD (PSA(67-79)-G0F [5]) [OD] | BL (Binding Late) (PSA(67-79)-G0F [6]) [RU]
anti-PSA mouse monoclonal antibody ER-PR8 | 3 + and 3.5 + |  |  |  |  |  |  |  | 
B1 | 3.5 + and 3.25 + | 2 | 5 | 0.6 | 0.00112 | 1.75e+06 | 10 | > 1 | 27
B2 | 3 + and 2.75 + | 2 | 5 | 2 | 0.00105 | 578000 | 11 | > 1 | 54
B3 | 3.5 + and 3 + | 2 | 5 | 0.4 | 0.00038 | 981000 | 31 | > 1 | 29
B4 | 3 + and 2.5 + | 1 | 5 | 1 | 0.00078 | 779000 | 15 | > 1 | 53
B5 | 3 + and 2.5 + | 1 | 5 | 11 | 0.0121 | 1.14e+06 | 1 | > 1 | 31
B6 | 3.25 + and 3 + | 1 | 5 | 4 | 0.00536 | 1.52e+06 | 2 | > 1 | 25

Source: patent US20230340147A1 (published 2023)
